Target: each of 12 IFNα subtypes and IFNω (ISRE-luciferase reporter assay, median IC50)

median IC50 of inhibition of the IFN-induced ISRE-luciferase reporter response in transfected HEK293 cells: 0.0109 µg/mL
B1: rontalizumab, in-house-generated recombinant (antibody, INN chains, looked up, V domains shown)
VH: EVQLVESGGGLVQPGGSLRLSCATSGYTFTEYIIHWVRQAPGKGLEWVASINPDYDITNYNQRFKGRFTISLDKSKRTAYLQMNSLRAEDTAVYYCASWISDFFDYWGQGTLVTVSS
VL: DIQMTQSPSSLSASVGDRVTITCRASQSVSTSSYSYMHWYQQKPGKAPKVLISYASNLESGVPSRFSGSGSGTDFTLTISSLQPEDFATYYCQHSWGIPRTFGQGTKVEIKR

From article PMC4967814
